According to US20080280833A1, “Therapeutic Peptides Derived from Urokinase Plasminogen Activator Receptor” (priority 2005, published 2008):

Target: purified human αvβ3 integrin (Chemicon) (human) (UniProt P06756)
Assay: cell-free pull-down: 125I-suPAR + αvβ3 + uPA + D2A (5 µg), immunoprecipitation with LM609, densitometry

purified human αvβ3 integrin (Chemicon) (human), sequence (P06756 31-1048, form in doubt, chain 1 of 2): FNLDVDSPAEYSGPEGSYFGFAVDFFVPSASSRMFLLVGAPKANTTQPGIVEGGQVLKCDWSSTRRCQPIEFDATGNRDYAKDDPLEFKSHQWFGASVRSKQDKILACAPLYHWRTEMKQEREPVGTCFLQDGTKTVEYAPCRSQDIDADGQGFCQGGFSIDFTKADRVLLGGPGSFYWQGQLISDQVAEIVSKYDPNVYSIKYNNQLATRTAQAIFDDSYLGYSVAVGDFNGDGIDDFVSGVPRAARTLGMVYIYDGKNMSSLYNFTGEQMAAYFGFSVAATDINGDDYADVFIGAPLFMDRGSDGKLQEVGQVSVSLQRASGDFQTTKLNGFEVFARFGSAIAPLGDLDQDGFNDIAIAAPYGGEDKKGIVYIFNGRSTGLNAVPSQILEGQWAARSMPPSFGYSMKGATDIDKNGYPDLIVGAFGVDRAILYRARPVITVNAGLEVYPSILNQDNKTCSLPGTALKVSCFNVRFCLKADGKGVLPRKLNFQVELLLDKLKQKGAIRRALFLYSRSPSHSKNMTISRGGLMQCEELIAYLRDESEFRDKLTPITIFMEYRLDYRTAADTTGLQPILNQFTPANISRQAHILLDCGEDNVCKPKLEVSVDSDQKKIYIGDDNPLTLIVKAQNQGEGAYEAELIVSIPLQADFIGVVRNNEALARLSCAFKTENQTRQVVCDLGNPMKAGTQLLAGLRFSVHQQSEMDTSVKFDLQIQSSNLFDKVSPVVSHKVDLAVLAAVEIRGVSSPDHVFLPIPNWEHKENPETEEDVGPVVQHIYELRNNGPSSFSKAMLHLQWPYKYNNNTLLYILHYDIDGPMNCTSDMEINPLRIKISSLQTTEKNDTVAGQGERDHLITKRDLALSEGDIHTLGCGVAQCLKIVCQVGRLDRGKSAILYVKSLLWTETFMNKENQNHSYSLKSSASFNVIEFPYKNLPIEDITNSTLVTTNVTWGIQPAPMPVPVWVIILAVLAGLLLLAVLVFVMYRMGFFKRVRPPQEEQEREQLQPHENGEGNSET
purified human αvβ3 integrin (Chemicon) (human), sequence (P05106 27-788, form in doubt, chain 2 of 2, further chain): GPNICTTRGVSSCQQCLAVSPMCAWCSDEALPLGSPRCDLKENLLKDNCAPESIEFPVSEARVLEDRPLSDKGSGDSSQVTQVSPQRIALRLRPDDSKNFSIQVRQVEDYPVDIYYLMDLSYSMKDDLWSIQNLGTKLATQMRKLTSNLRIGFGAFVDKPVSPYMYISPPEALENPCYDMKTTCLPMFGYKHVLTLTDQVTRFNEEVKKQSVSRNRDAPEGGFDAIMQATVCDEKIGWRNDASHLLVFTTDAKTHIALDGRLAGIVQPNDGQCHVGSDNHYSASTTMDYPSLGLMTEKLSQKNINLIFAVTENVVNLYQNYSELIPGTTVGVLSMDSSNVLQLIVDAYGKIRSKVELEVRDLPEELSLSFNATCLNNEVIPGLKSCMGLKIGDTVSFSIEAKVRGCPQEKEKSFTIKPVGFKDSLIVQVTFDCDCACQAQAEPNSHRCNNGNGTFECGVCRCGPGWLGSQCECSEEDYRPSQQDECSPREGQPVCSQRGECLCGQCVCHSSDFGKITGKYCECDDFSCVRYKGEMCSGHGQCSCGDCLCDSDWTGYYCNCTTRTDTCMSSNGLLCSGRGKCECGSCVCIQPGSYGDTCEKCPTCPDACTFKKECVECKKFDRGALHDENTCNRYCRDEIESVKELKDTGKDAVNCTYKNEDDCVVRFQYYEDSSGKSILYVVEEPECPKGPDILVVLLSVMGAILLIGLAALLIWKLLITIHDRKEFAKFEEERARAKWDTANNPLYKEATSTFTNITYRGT

For “peptide D2A, synthetic peptide of domain 2 of human uPAR (aa130-142)”, the percent reduction of coimmunoprecipitated suPAR compared to uPA alone was 50%.
